This note sets out measurements from the RNAGym collection of RNA variant scans (doi:10.7554/elife.90254).

The chains are these.
B1: OR4K15 (parent)
chain: GUUAACGGUCAUAGGCCAUGGAAACUAGGAGCACCAUUUCGCUGCCAGUGAAGAAAUGAACAAAGAAAAUCUGGGCCAGGCAGGCAUCAAAAGAAAUAGUCUUGCGCUCAACCAGAAAGUCUGUAAUCAUUUUAAGGGUA

Variants of B1 are the subject of the data set. In words: self-cleavage, relative activity (ratio to wild type); higher = more cleavage; in vitro, sequencing; the parent is a self-cleaving ribozyme.
On to U120C C128A, for which the self-cleavage stood at 0.69.
With U131C G137A the figure was 0.07.
With U131C G137U the figure was 1.54; with A118G U122A, 0.79; with U130C A134G, 0.27.
For A116U A126U, the self-cleavage amounted to 0.21.
Under U127C A129C stands 0.21; under A114U A116G, 0.01; under U127C U139C, 0.89.
Under U130A U132C stands 1.42; under U120A U130A, 0.54; under A117G C128A, 1.07.
As for A118C U132C, the self-cleavage is 0.57.
On to U122A A129G, for which the self-cleavage turned out to be 1.38.
Under C113A U120C stands 0.02; under A129G U133C, 1.42.
Regarding U130C U133C, the self-cleavage came to 1.54.
Regarding U120G U139A, the self-cleavage is 1.61.
With A129G A134U the figure was 1.02.
With A129G A134G the figure was 1.15; with A118G A126G, 0.83.
Regarding A114G A135U, the self-cleavage came out at 0.15.
With A114G A135G the figure was 0.93; with A118G A125U, 1.22; with A118G A125G, 0.1.
Under U124C A125G stands 1.32; under U130C A135U, 0.65; under A116G U131C, 0.27.
With A116G U131G the figure was 0.3.
As for A117G G138C, the self-cleavage is 2.13.
For A129C, the self-cleavage came out at 0.97.
On to A129U, for which the self-cleavage was found to be 0.65.
With A129G the figure was 0.93.
With A116G G138A the figure was 0.8; with G115A U132G, 0.01.
As for A118U A126G, the self-cleavage came out at 0.17.
A114G A126G: the self-cleavage was found to be 0.28.
Regarding A114G A126U, the self-cleavage came out at 0.46.
Under A114G A134G stands 0.63.
Under U120C U127C stands 0.43.
For U130G A135G, the self-cleavage came to 1.08.
Take A114U A134G: the self-cleavage stood at 0.04.
Regarding U122C A126U, the self-cleavage is 1.12.
Consider A118G U139G, for which the self-cleavage came out at 0.07.
Under A129G U131C stands 1.38; under A117U A118G, 0.97.
As for A117U A118C, the self-cleavage came to 0.51.
With U120A A140G the figure was 1.13.
Under U120A A140U stands 1.67.
With U120C A125U the figure was 1.38; with U120C A125G, 0.43.
As for A117G A118G, the self-cleavage is 0.59.
With A117G A118U the figure was 1.72.
With C112G A135U, the self-cleavage amounted to 0.01.
For the variant U127C U133A, the self-cleavage was determined as 1.7.
With A125G A140G the figure was 0.69; with A117U A126G, 0.89.
Regarding A125U U127C, the self-cleavage was found to be 1.28.
For U124C A135C, the self-cleavage came out at 0.06.
U124C A135G: the self-cleavage turned out to be 1.33.
Take U127C A140U: the self-cleavage was 1.33.
With A117U U133C, the self-cleavage was 1.23.
With A118G A134U the figure was 1.03.
With A114C U124C the figure was 0.03; with C112U A129G, 0.01; with A125U A134G, 1.48.
Under A114G C128U stands 0.11; under A118G G137A, 0.86; under A114G A117G, 0.37.
Consider A116G A134C, for which the self-cleavage was found to be 0.7.
Under A116G A134G stands 0.59.
With A125U A140G the figure was 1.42; with A117U A125G, 0.99; with U122C U133A, 0.52.
As for U122C U133C, the self-cleavage was 2.05.
As to A116U U127C, the self-cleavage was determined as 0.23.
Under U122C A135U stands 1.06.
As to U122C A135G, the self-cleavage turned out to be 1.24.
Under A114U U127C stands 0.03; under U130A U139C, 0.78; under U122C U139A, 1.1.
With U122C C128A the figure was 0.38; with U120C G136A, 1.65.
With A129C U130C the figure was 0.63.
On to U124C U130G, for which the self-cleavage amounted to 0.87.
With U124C U130C the figure was 0.57; with A126G U139A, 0.
With A125G U127A the figure was 1.11; with A125G U127C, 0.27.
With A114U U132C the figure was 0.02; with A114U U132A, 0.08.
For U120C A135C, the self-cleavage is 1.51.
Turning to A129G A135U, the self-cleavage worked out at 1.54.
Under A129G A135G stands 1.08; under U122C U124C, 0.67; under U124C U132C, 1.13.
Under A116G A135G stands 0.5; under U130A U131C, 1.75; under A114G U133C, 0.12.
With C128A A134G, the self-cleavage turned out to be 1.63.
In the case of U122C G138U, the self-cleavage was found to be 1.37.
Take A125G U132A: the self-cleavage is 0.32.
Under A125G U132C stands 0.52; under C112A A125G, 0.01; under U122A A135G, 2.11.
On to U124C A126G, for which the self-cleavage came to 0.48.
In the case of C121A U132A, the self-cleavage was 1.42.
Under A114G A129G stands 0.07; under A114G A129U, 0.13; under A118G A140G, 1.32.
With A118G A140U the figure was 1.28; with A116U U133C, 0.21; with U122G A129U, 1.75.
As to A111U U124C, the self-cleavage was found to be 0.08.
Under A125U A126G stands 1.04.
Under A111U A125G stands 0.01; under C128A U139C, 1.05.
For U120A A126G, the self-cleavage amounted to 1.64.
Turning to A126G A135C, the self-cleavage amounted to 0.84.
Under A117G U131C stands 1.15; under A116G U122C, 0.4; under A116U A129U, 0.29.
With U127C U132A the figure was 0.62; with A114G A116U, 0.05; with A129G U139A, 0.81.
Consider A129G U139C, for which the self-cleavage is 0.85.
On to A118U U139A, for which the self-cleavage came out at 0.6.
With U124C U127C the figure was 0.84; with U124A U133G, 0.43.
With A129C U132C the figure was 0.98.
As for A111U U139A, the self-cleavage came to 0.16.
With A114U G123A the figure was 0.11.
Under G119A A126G stands 1.98.
Under U127C A135G stands 0.83.
As to A116C, the self-cleavage was found to be 0.13.
As to A116U, the self-cleavage stood at 0.23.
Turning to A116G, the self-cleavage is 0.47.
Under A116G A125G stands 0.23.
As to A117U U131C, the self-cleavage is 1.01.
On to A117U U131G, for which the self-cleavage was 1.38.
A125U U131C: the self-cleavage is 2.47.
With A114G U131C the figure was 0.15; with C112G U122A, 0.05.
For U127G A129G, the self-cleavage was 0.97.
Take U120C G138U: the self-cleavage was 2.11.
With U122C U127C the figure was 0.25.
U131C A140G: the self-cleavage was determined as 0.47.
For U131C A140U, the self-cleavage came out at 1.59.
Regarding U120C A129G, the self-cleavage is 0.63.
With A126G A134G the figure was 1.17; with A118U U127C, 0.02.
A116G U130A: the self-cleavage is 0.51.
Under A118U U122A stands 1.08; under A117U A135G, 0.7; under A117G U120C, 0.23.
With U131C A135C the figure was 1.02; with U131C A135G, 1.55.
With U131C A135U, the self-cleavage amounted to 0.87.
Regarding U130C U131A, the self-cleavage was found to be 0.25.
In the case of U130C U131C, the self-cleavage amounted to 1.01.
Under U120C U131C stands 0.85; under A117G U124C, 0.69.
For the variant A125G A135U, the self-cleavage turned out to be 0.54.
Under A118G U120A stands 2.61; under A118G U120G, 0.59; under U122A U132C, 2.13.
Under A118U U120A stands 1.68.
